Measured values taken from article PMC9482650, “Quantitative fragmentomics allow affinity mapping of interactomes” (Nature Communications, 2022).

T1: PDZD7_3, Q9H5P4
T1 sequence (Q9H5P4 857-944, limits assumed, looked up): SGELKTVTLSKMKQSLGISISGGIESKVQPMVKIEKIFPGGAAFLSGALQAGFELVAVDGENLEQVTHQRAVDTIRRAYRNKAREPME

T2: MPP7, Q5T2T1
T2 sequence (Q5T2T1 134-230, limits assumed, looked up): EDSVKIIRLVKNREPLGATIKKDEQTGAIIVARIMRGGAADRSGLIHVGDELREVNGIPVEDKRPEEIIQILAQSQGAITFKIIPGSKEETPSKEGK

T3: NHERF3_1, Q5T2W1
T3 sequence (Q5T2W1 4-100, limits assumed, looked up): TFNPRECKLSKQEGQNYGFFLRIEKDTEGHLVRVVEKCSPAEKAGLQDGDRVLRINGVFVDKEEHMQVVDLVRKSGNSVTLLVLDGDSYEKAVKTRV

T4: TJP3_3, O95049
T4 sequence (O95049 375-456, limits assumed, looked up): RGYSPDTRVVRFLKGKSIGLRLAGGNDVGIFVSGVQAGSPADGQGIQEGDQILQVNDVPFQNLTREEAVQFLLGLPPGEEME

T5: MPP2, Q14168
T5 sequence (Q14168 180-250, limits assumed, looked up): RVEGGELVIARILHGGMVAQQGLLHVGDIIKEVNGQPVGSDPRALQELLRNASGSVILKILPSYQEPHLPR

T6: LRRC7, Q96NW7
T6 sequence (Q96NW7 1440-1537, limits assumed, looked up): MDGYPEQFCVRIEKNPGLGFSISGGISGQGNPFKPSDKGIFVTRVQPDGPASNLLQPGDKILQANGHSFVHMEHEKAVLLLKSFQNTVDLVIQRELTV

T7: SYNJ2BP, P57105
T7 sequence (P57105 8-110, limits assumed, looked up): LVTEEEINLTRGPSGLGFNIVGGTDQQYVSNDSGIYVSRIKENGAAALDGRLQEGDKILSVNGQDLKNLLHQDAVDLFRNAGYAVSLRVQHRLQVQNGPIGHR

T8: RHPN1, Q8TCX5
T8 sequence (Q8TCX5 508-602, limits assumed, looked up): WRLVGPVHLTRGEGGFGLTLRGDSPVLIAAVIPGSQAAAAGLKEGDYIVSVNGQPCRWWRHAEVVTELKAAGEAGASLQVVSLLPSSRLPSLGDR

T9: PDZD2_2, O15018
T9 sequence (O15018 329-429, limits assumed, looked up): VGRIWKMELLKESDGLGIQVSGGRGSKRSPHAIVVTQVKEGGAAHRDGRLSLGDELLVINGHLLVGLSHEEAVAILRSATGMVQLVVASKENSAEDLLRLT

T10: MPP6, Q9NZW5
T10 sequence (Q9NZW5 125-219, limits assumed, looked up): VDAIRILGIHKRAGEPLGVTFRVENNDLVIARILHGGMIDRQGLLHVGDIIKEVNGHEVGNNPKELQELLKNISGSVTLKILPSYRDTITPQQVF

T11: GRIP1_4, Q9Y3R0
T11 sequence (Q9Y3R0 467-571, limits assumed, looked up): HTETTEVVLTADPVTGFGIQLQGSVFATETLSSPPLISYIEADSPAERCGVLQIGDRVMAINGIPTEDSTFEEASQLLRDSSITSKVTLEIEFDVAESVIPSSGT

T12: APBA2_2, Q99767
T12 sequence (Q99767 654-744, limits assumed, looked up): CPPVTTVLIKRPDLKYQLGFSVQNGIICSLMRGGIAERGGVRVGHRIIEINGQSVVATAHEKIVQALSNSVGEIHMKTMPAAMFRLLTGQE

T13: MPDZ_5, O75970
T13 sequence (O75970 695-796, limits assumed, looked up): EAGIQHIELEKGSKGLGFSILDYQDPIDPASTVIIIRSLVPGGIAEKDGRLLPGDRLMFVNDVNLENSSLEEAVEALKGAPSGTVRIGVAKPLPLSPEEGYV


Key:
Test in all cases: holdup assay
Design in all cases: key: below the threshold = too weak to quantify, mostly under pKd 3.1 to 4
Conditions in all cases: plain residues with an end cap or a label only (N-terminal biotin on a linker: ado-ado)
[1] = biological target: T1, PDZD7_3, Q9H5P4
[2] = biological target: IL16_1, Q14005
[3] = biological target: T2, MPP7, Q5T2T1
[4] = biological target: GRIP2_6, Q9C0E4
[5] = biological target: FRMPD2_3, Q68DX3
[6] = biological target: T3, NHERF3_1, Q5T2W1
[7] = biological target: HTRA2, O43464
[8] = biological target: LNX1_2, Q8TBB1
[9] = biological target: T4, TJP3_3, O95049
[10] = biological target: T5, MPP2, Q14168
[11] = biological target: T6, LRRC7, Q96NW7
[12] = biological target: T7, SYNJ2BP, P57105
[13] = biological target: LNX1_1, Q8TBB1
[14] = biological target: T8, RHPN1, Q8TCX5
[15] = biological target: GORASP1, Q9BQQ3
[16] = biological target: T9, PDZD2_2, O15018
[17] = biological target: DLG1_1, Q12959
[18] = biological target: T10, MPP6, Q9NZW5
[19] = biological target: T11, GRIP1_4, Q9Y3R0
[20] = biological target: T12, APBA2_2, Q99767
[21] = biological target: MAGI1_2, Q96QZ7
[22] = biological target: T13, MPDZ_5, O75970
[23] = biological target: SCRIB_2, Q14160
[24] = biological target: MAGI2_4, Q86UL8
[25] = biological target: DLG4_3, P78352
Chain of DLG4_3, P78352 (P78352 306-403): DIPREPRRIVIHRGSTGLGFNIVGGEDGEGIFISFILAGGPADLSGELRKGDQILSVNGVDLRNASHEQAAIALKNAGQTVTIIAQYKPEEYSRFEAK

Chain of GORASP1, Q9BQQ3 (Q9BQQ3 1-208): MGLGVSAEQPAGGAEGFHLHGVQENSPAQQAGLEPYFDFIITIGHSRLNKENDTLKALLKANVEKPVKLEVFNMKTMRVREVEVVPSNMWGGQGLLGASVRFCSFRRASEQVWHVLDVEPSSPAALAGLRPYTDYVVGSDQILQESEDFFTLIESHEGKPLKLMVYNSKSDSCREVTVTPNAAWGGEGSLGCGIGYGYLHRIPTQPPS
Chain of MAGI2_4, Q86UL8 (Q86UL8 772-865): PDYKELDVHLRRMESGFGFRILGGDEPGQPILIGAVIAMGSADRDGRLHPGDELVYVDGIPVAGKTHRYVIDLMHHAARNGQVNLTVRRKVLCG
Chain of LNX1_1, Q8TBB1 (Q8TBB1 261-371): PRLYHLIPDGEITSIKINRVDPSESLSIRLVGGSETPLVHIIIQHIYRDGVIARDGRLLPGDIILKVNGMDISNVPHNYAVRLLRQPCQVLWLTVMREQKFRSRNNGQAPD
Chain of GRIP2_6, Q9C0E4 (Q9C0E4 648-740): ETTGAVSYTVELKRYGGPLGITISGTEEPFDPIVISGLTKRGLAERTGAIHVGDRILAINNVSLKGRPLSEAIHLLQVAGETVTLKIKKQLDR
Chain of FRMPD2_3, Q68DX3 (Q68DX3 1073-1166): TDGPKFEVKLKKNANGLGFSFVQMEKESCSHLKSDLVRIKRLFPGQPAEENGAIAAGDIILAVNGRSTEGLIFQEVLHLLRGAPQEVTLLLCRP
Chain of LNX1_2, Q8TBB1 (Q8TBB1 371-470): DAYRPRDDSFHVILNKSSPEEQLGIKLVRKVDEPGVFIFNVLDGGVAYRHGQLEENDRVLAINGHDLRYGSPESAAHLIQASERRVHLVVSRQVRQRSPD
Chain of HTRA2, O43464 (O43464 355-458): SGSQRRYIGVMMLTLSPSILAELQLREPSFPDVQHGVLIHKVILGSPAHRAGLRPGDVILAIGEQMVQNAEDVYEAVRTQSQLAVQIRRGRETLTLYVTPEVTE
Chain of SCRIB_2, Q14160 (Q14160 857-960): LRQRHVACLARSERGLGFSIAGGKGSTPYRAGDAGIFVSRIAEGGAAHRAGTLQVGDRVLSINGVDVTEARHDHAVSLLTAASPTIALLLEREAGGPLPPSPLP
Chain of MAGI1_2, Q96QZ7 (Q96QZ7 456-580): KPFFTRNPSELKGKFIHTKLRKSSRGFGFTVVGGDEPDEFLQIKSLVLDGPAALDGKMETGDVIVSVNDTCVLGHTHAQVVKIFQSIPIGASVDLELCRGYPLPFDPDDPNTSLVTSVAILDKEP
Chain of IL16_1, Q14005 (Q14005 210-306): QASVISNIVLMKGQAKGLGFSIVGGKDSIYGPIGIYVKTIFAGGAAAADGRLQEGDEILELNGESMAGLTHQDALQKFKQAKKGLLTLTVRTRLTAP

Row | Binder | pKd [1] | pKd [2] | pKd [3] | pKd [4] | pKd [5] | pKd [6] | pKd [7] | pKd [8] | pKd [9] | pKd [10] | pKd [11] | pKd [12] | pKd [13] | pKd [14] | pKd [15] | pKd [16] | pKd [17] | pKd [18] | pKd [19] | pKd [20] | also measured
1 | EDLEDEWEVI [TECPR2, O15040] | 3.92 | below the threshold | below the threshold | below the threshold | below the threshold | below the threshold | below the threshold | below the threshold | below the threshold | below the threshold | below the threshold | below the threshold | below the threshold | 3.57 | 4.12 | 3.84 | below the threshold | below the threshold | below the threshold | below the threshold | pKd [21]: below the threshold; pKd [22]: below the threshold; pKd [23]: below the threshold; pKd [24]: below the threshold; pKd [25]: below the threshold
2 | QLSFNTDTLC [ABCA2, Q9BZC7] | below the threshold | 3.58 | below the threshold | below the threshold | below the threshold | 4.07 | below the threshold | below the threshold | below the threshold | below the threshold | below the threshold | 3.58 | below the threshold | below the threshold | below the threshold | below the threshold | 3.87 | below the threshold | below the threshold | below the threshold | pKd [21]: below the threshold; pKd [22]: below the threshold; pKd [23]: below the threshold; pKd [24]: 4.17; pKd [25]: below the threshold
